The source of these data is US12303551B2, “Cellular immunotherapy compositions and uses thereof” (CERO THERPEUTICS HOLDINGS, INC., priority 2018, dated 2025).

This experiment has as its system SCC152 cells. As to the kind of experiment: Elimination of GFP-expressing SCC152 target cells over time (quantification and time lapse imaging). The class given is cell-based. The settings on record: for number of SCC152 cells in time lapse imaging: 96-well co-culture, CD8+/E7 TCR + CD4+/CER + SCC152 1:1:1, compared to control; for elimination of SCC152 cells, time lapse imaging: 0 to 36 hrs, compared to the control; for elimination of SCC152 cells (GFP quantification): by 36 hrs, 1:1:1 ratio (CD8:CD4:target cell), compared to control. The method, boiled down:
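GFP-labelled SCC152 (HPV16+) target cells were co-cultured at 1:1:1 with CD8+ T cells carrying an HPV16 E7 TCR and with CD4+ T cells transduced with a chimeric CER or a control. Remaining target cells were counted by fluorescence imaging and automated software at 0, 12, 24, 36 h or 0, 24, 48 h.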

B1: CER104: Chimeric engulfment receptor: Tim4 binding, Tim4 transmembrane, TLR8 and DAP12 signaling; SEQ ID NO: 139 (protein)
chain: MSKGLLLLWLVTELWWLYLTPAASEDTIIGFLGQPVTLPCHYLSWSQSRNSMCWGKGSCPNSKCNAELLRTDGTRIISRKSTKYTLLGKVQFGEVSLTISNTNRGDSGVYCCRIEVPGWFNDVKKNVRLELRRATTTKKPTTTTRPTTTPYVTTTTPELLPTTVMTTSVLPTTTPPQTLATTAFSTAVTTCPSTTPGSFSQETTKGSAFTTESETLPASNHSQRSMMTISTDIAVLRPTGSNPGILPSTSQLTTQKTTLTTSESLQKTTKSHQINSRQTILIIACCVGFVLMVLLFLAFLHHLFYWDVWFIYNVCLAKVKGYRSLSTSQTFYDAYISYDTKDASVTDWVINELRYHLEESRDKNVLLCLEERDWDPGLAIIDNLMQSINQSKKTVFVLTKKYAKSWNFKTAFYLALQRLMDENMDVIIFILLEPVLQHSQYLRLRQRICKSSILQWPDNPKAEGLFWQTLRNVVLTENDSRYNNMYVDSIKQYYFLGRLVPRGRGAAEAATRKQRITETESPYQELQGQRSDVYSDLNTQRPYYK
modifications: CER104, amino acids 1-22 are signal peptide
As to B1, the “number of SCC152 cells in time lapse imaging” value was “decreasing in numbers over time”.

B2: CER116: Chimeric engulfment receptor: Tim4 binding, Tim4 transmembrane, TRAF6 and TLR8 signaling; SEQ ID NO: 152 (protein)
chain: MSKGLLLLWLVTELWWLYLTPAASEDTIIGFLGQPVTLPCHYLSWSQSRNSMCWGKGSCPNSKCNAELLRTDGTRIISRKSTKYTLLGKVQFGEVSLTISNTNRGDSGVYCCRIEVPGWFNDVKKNVRLELRRATTTKKPTTTTRPTTTPYVTTTTPELLPTTVMTTSVLPTTTPPQTLATTAFSTAVTTCPSTTPGSFSQETTKGSAFTTESETLPASNHSQRSMMTISTDIAVLRPTGSNPGILPSTSQLTTQKTTLTTSESLQKTTKSHQINSRQTILIIACCVGFVLMVLLFLAFLMSLLNCENSCGSSQSESDCCVAMASSCSAVTKDDSVGGTASTGNLSSSFMEEIQGYDVEFDPPLESKYECPICLMALREAVQTPCGHRFCKACIIKSIRDAGHKCPVDNEILLENQLFPDNFAKREILSLMVKCPNEGCLHKMELRHLEDHQAHCEFALMDCPQCQRPFQKFHINIHILKDCPRRQVSCDNCAASMAFEDKEIHDQNCPLANVICEYCNTILIREQMPNHYDLDCPTAPIPCTFSTFGCHEKMQRNHLARHLQENTQSHMRMLAHHLFYWDVWFIYNVCLAKVKGYRSLSTSQTFYDAYISYDTKDASVTDWVINELRYHLEESRDKNVLLCLEERDWDPGLAIIDNLMQSINQSKKTVFVLTKKYAKSWNFKTAFYLALQRLMDENMDVIIFILLEPVLQHSQYLRLRQRICKSSILQWPDNPKAEGLFWQTLRNVVLTENDSRYNNMYVDSIKQY
modifications: CER116, amino acids 1-22 are signal peptide
For B2, the “elimination of SCC152 cells, time lapse imaging” value is “enhanced elimination of SCC152 cells”; the “number of SCC152 cells in time lapse imaging” value is recorded as “decreasing in numbers over time”; the “elimination of SCC152 cells (GFP quantification)” value is “nearly complete elimination”.

B3: CER117: Chimeric engulfment receptor: Tim4 binding, Tim4 transmembrane, TLR8 and TRAF6 signaling; SEQ ID NO: 153 (protein)
chain: MSKGLLLLWLVTELWWLYLTPAASEDTIIGFLGQPVTLPCHYLSWSQSRNSMCWGKGSCPNSKCNAELLRTDGTRIISRKSTKYTLLGKVQFGEVSLTISNTNRGDSGVYCCRIEVPGWFNDVKKNVRLELRRATTTKKPTTTTRPTTTPYVTTTTPELLPTTVMTTSVLPTTTPPQTLATTAFSTAVTTCPSTTPGSFSQETTKGSAFTTESETLPASNHSQRSMMTISTDIAVLRPTGSNPGILPSTSQLTTQKTTLTTSESLQKTTKSHQINSRQTILIIACCVGFVLMVLLFLAFLHHLFYWDVWFIYNVCLAKVKGYRSLSTSQTFYDAYISYDTKDASVTDWVINELRYHLEESRDKNVLLCLEERDWDPGLAIIDNLMQSINQSKKTVFVLTKKYAKSWNFKTAFYLALQRLMDENMDVIIFILLEPVLQHSQYLRLRQRICKSSILQWPDNPKAEGLFWQTLRNVVLTENDSRYNNMYVDSIKQYMSLLNCENSCGSSQSESDCCVAMASSCSAVTKDDSVGGTASTGNLSSSFMEEIQGYDVEFDPPLESKYECPICLMALREAVQTPCGHRFCKACIIKSIRDAGHKCPVDNEILLENQLFPDNFAKREILSLMVKCPNEGCLHKMELRHLEDHQAHCEFALMDCPQCQRPFQKFHINIHILKDCPRRQVSCDNCAASMAFEDKEIHDQNCPLANVICEYCNTILIREQMPNHYDLDCPTAPIPCTFSTFGCHEKMQRNHLARHLQENTQSHMRMLA
modifications: CER117, amino acids 1-22 are signal peptide
Turning to B3, the “elimination of SCC152 cells, time lapse imaging” value was “enhanced elimination of SCC152 cells” and the “elimination of SCC152 cells (GFP quantification)” value is listed as “nearly complete elimination”.
